Data reported in article PMC12607895 (2025).

B1: HAdV-D26 hexon (natural protein)
chain: ATPSMMPQWAYMHIAGQDASEYLSPGLVQFARATDTYFSLGNKFRNPTVAPTHDVTTDRSQRLTLRFVPVDREDTTYSYKARFTLAVGDNRVLDMASTYFDIRGVLDRGPSFKPYSGTAYNSLAPKGAPNPSQWETKEKQGTTGGVQQEKDVTKTFGVAATGGINITNQGLLLGTDETAENGKKDIYADKTFQPEPQVGEENWQENEAFYGGRALKKDTKMKPCYGSFARPTNEKGGQAKFKPVNEGEQPKDLDIDFAYFDVPGGSPPAGGSGEEYKADIILYTENVNLETPDTHVVYKPGTSDNSSEINLVQQSMPNRPNYIGFRDNFVGLMYYNSTGNMGVLAGQASQLNAVVDLQDRNTELSYQLLLDSLGDRTRYFSMWNSAVDSYDPDVRIIENHGVEDELPNYCFPLNGTGTNSTYQGVKITNGNDGAEESEWEKDDAISRQNQICKGNVYAMEINLQANLWKSFLYSNVALYLPDSYKYTPANVKLPANTNTYEYMNGRVVAPSLVDAYINIGARWSLDPMDNVNPFNHHRNAGLRYRSMLLGNGRYVPFHIQVPQKFFAIKNLLLLPGSYTYEWNFRKDVNMILQSSLGNDLRVDGASVRFDSVNLYATFFPMAHNTASTLEAMLRNDTNDQSFNDYLSAANMLYPIPAKATNVPISIPSRNWAAFRGWSFTRLKTKETPSLGSGFDPYFVYSGSIPYLDGTFYLNHTFKKVSIMFDSSVSWPGNDRLLTPNEFEIKRSVDGEGYNVAQCNMTKDWFLVQMLSHYNIGYQGFHVPEGYKDRMYSFFRNFQPMSRQVVDEINYKDYKAVTLPFQHNNSGFTGYLAPTMRQGQPYPANFPYPLIGQTAVPSVTQKKFLCDRVMWRIPFSSNFMSMGALTDLGQNMLYANSAHALDMTFEVDPMDEPTLLYLLFEVFDVVRVHQPHRGVIEAVYLRTPFSAGNATT
modifications: Source, isoform and limits not given; soluble extracellular domain assumed; N/O-glycosylated; amine-coupled to CM5 chip
B2: HAdV-D56 hexon (natural protein)
chain: ATPSMMPQWAYMHIAGQDASEYLSPGLVQFARATDTYFSLGNKFRNPTVAPTHDVTTDRSQRLTLRFVPVDREDTTYSYKARFTLAVGDNRVLDMASTYFDIRGVLDRGPSFKPYSGTAYNSLAPKGAPNSSQWEQKKANAGEQKETHTYGVAPMGGENITISGLQIGTDTTNGKQDPIYANKLYQPEPQVGEENWQETEAFYGGRALKKETKMKPCYGSFARPTNEKGGQAKLRDPEKSQEDFDIDLAFFDTPGGTLTGGGTEYKADIVMCTENVNLETPDTHVVYKPGKDDDSSEINLVQQSMPNRPNYIGFRDNFVGLMYYNSTGNMGVLAGQASQLNAVVDLQDRNTELSYQLLLDSLGDRTRYFSMWNSAVDSYDPDVRIIENHGVEDELPNYCFPLDGSGTNAAYEGVKVKNGQDGDQESEWEKDTNVADRNQICKGNIYAMEINLQANLWKSFLYSNVALYLPDSYKYTPANVTLPTNTNTYEYMNGRVVAPSLVDAYINIGARWSLDPMDNVNPFNHHRNAGLRYRSMLLGNGRYVPFHIQVPQKFFAIKNLLLLPGSYTYEWNFRKDVNMILQSSLGNDLRVDGASVRFDSVNLYATFFPMAHNTASTLEAMLRNDTNDQSFNDYLSAANMLYPIPAKATNVPISIPSRNWAAFRGWSFTRLKTKETPSLGSGFDPYFVYSGSIPYLDGTFYLNHTFKKVSIMFDSSVSWPGNDRLLTPNEFEIKRSVDGEGYNVAQCNMTKDWFLVQMLSHYNIGYQGFHVPEGYKDRMYSFFRNFQPMSRQVVDEINYKDYKAVTLPFQHNNSGFTGYLAPTMRQGQPYPANFPYPLIGQTAVPSVTQKKFLCDRVMWRIPFSSNFMSMGALTDLGQNMLYANSAHALDMTFEVDPMDEPTLLYLLFEVFDVVRVHQPHRGVIEAVYLRTPFSAGNATT
modifications: Source, isoform and limits not given; soluble extracellular domain assumed; N/O-glycosylated; amine-coupled to CM5 chip
B3: CD46 (receptor)
chain: CEEPPTFEAMELIGKPKPYYEIGERVDYKCKKGYFYIPPLATHTICDRNHTWLPVSDDACYRETCPYIRDPLNGQAVPANGTYEFGYQMHFICNEGYYLIGEEILYCELKGSVAIWSGKPPICEKVLCTPPPKIKNGKHTFSEVEVFEYLDAVTYSCDPAPGPDPFSLIGESTIYCGDNSVWSRAAPECKVVKCRFPVVENGKQISGFGKKFYYKATVMFECDKGFYLDGSDTIVCDSNSTWDPPVPKCLKVLPPSSTKPPALSHSVSTSSTTKSPASSASGPRPTYKPPVSNYPGYPKPEEGILDSLDVWVIAVIVIAIVVGVAVICVVPYRYLQRRKKKGTYLTDETHREVKFTSL
B4: CD46 (receptor)
chain: CEEPPTFEAMELIGKPKPYYEIGERVDYKCKKGYFYIPPLATHTICDRNHTWLPVSDDACYRETCPYIRDPLNGQAVPANGTYEFGYQMHFICNEGYYLIGEEILYCELKGSVAIWSGKPPICEKVLCTPPPKIKNGKHTFSEVEVFEYLDAVTYSCDPAPGPDPFSLIGESTIYCGDNSVWSRAAPECKVVKCRFPVVENGKQISGFGKKFYYKATVMFECDKGFYLDGSDTIVCDSNSTWDPPVPKCLKVLPPSSTKPPALSHSVSTSSTTKSPASSASGPRPTYKPPVSNYPGYPKPEEGILDSLD
B5: HAdV-B11 fiber knob (domain or fragment)
chain: GLTFNSNNICIDDNINTLWTGVNPTEANCQIMNSSESNDCKLILTLVKTGALVTAFVYVIGVSNNFNMLTTHRNINFTAELFFDSTGNLLTRLSSLKTPLNHKSGQNMATGAITNAKGFMPSTTAYPFNDNSREKENYIYGTCYYTASDRTAFPIDISVMLNRRAINDETSYCIRITWSWNTGDAPEVQTSATTLVTSPFTFYYIREDD
modifications: trimer; knob limits by convention (last shaft residues to C-terminus) Source, isoform and limits not given; soluble extracellular domain assumed; N/O-glycosylated; amine-coupled to CM5 chip
B6: HAdV-C5 fiber knob (domain or fragment)
chain: TGAITVGNKNNDKLTLWTTPAPSPNCRLNAEKDAKLTLVLTKCGSQILATVSVLAVKGSLAPISGTVQSAHLIIRFDENGVLLNNSFLDPEYWNFRNGDLTEGTAYTNAVGFMPNLSAYPKSHGKTAKSNIVSQVYLNGDKTKPVTLTITLNGTQETGDTTPSAYSMSFSWDWSGHNYINEIFATSSYTFSYIAQE
modifications: trimer; limits by convention of the Ad5 knob structure 1KNB Source, isoform and limits not given; soluble extracellular domain assumed; N/O-glycosylated; amine-coupled to CM5 chip
B7: HAdV-D37 fiber knob (domain or fragment)
chain: WNPKYDTRTLWTTPDTSPNCTIAQDKDSKLTLVLTKCGSQILANVSLIVVAGKYHIINNKTNPKIKSFTIKLLFNKNGVLLDNSNLGKAYWNFRSGNSNVSTAYEKAIGFMPNLVAYPKPSNSKKYARDIVYGTIYLGGKPDQPAVIKTTFNQETGCEYSITFNFSWSKTYENVEFETTSFTFSYIAQE
modifications: Source, isoform and limits not given; soluble extracellular domain assumed; N/O-glycosylated; amine-coupled to CM5 chip

Legend:
Assay in all cases: SPR
CD46 = target: B4
HAdV-B11 hexon = HAdV-B11 hexon (human adenovirus B11 (HAdV-B11))
HAdV-D113 hexon = HAdV-D113 hexon (human adenovirus D113 (HAdV-D113))
HAdV-D113 fiber knob = HAdV-D113 fiber knob (human adenovirus D113 (HAdV-D113))
HAdV-D56 fiber knob = HAdV-D56 fiber knob (human adenovirus D56 (HAdV-D56))
HAdV-D37 hexon = HAdV-D37 hexon (human adenovirus D37 (HAdV-D37))

Binder	Kd (CD46) [µM]	further results
B1	4.24	–
B2	6.73	–
B3	–	Kd (HAdV-B11 hexon): 0.21 µM; Kd (HAdV-D113 hexon): 4.19 µM; Kd (HAdV-D113 fiber knob): 0.13 µM
B4	–	Kd (HAdV-D56 fiber knob): 0.15 µM; Kd (HAdV-D37 hexon): 3.09 µM
B5	0.00114	–
B6	0.13	–
B7	2.7	–
